Values of other authors as cited in article PMC3036779.
pKd: −log10 of the molar value.

Target: GABARAP (Homo sapiens) (UniProt O95166)
Chain of UniProt O95166 (O95166 1-116): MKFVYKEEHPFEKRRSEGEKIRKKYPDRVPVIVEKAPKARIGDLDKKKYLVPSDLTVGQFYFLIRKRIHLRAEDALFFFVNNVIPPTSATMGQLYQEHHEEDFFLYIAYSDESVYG

pKd: 4.00
Substance: Nix (from UniProt O60238)
